From PMC12491506, “Identification of a RAB32-LRMDA-Commander membrane trafficking complex reveals the molecular mechanism of human oculocutaneous albinism type 7” (Nature Communications, 2025)

Biological target: T1, recombinant LRMDA (tag-less) (human, UniProt A0A087WWI0 1-226)
T1 construct: LRMDA, human, full-length, longer isoform (this isoform was used in all experiments); gene synthesised with codon optimisation for S. frugiperda; also called purified LRMDA; HaloTag-TEV-LRMDA after TEV cleavage; source: Sf21 insect cells (baculovirus), purified (HaloLink resin, TEV cleavage); not shown: HaloTag, N-terminal, cleaved
T1 sequence (looked up): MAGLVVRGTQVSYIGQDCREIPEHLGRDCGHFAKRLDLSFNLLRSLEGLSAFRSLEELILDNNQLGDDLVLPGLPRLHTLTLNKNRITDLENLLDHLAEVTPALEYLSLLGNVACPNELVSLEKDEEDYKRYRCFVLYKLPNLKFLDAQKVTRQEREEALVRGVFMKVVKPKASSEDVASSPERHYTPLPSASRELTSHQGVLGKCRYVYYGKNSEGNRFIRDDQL
Test: pull-down; 0.5 µM Retriever (His-tagged VPS29) on TALON resin with 1 µM LRMDA and 1 µM RAB32 together; 50 mM HEPES pH 7.2, 150 mM NaCl, 2 mM β-mercaptoethanol, 0.1% Triton X-100; 45 min at 4 °C; washes with 10 mM imidazole
Details: both partners purified

B1: recombinant RAB32 (tag-less) (natural protein, human, UniProt Q13637 1-225, looked up)
chain: MAGGGAGDPGLGAAAAPAPETREHLFKVLVIGELGVGKTSIIKRYVHQLFSQHYRATIGVDFALKVLNWDSRTLVRLQLWDIAGQERFGNMTRVYYKEAVGAFVVFDISRSSTFEAVLKWKSDLDSKVHLPNGSPIPAVLLANKCDQNKDSSQSPSQVDQFCKEHGFAGWFETSAKDNINIEEAARFLVEKILVNHQSFPNEENDVDKIKLDQETLRAENKSQCC
notes: RAB32, human, full-length; also called purified RAB32; GST-TEV-RAB32 after TEV cleavage; source: Sf21 insect cells (baculovirus), purified (Glutathione Sepharose 4b, TEV cleavage); not shown: GST, N-terminal, cleaved
Question: Does B1 bind?
Answer: binds
